The target of this assay is CD40 (UniProt P25942). Nature of the assay: cell-based or functional assay.

For the substance LOB7/6 (antibody), the EC50 of CD40 activation, bioluminescent reporter CHO cells is -1.47 log(µM).
